Source: patent US20240117061A1 (WUHAN YZY BIOPHARMA, published 2024)

Legend:
[1] = biological target: T1, recombinant cynomolgus monkey cynoBCMA-his (ACRO Biosystem, Cat. No. BCA-052H7) (cynomolgus monkey, UniProt A0A2K5UD97 1-53); assay: ELISA, coated antigen
T1 construct: extracellular domain; Bought protein; also called cynomolgus/rhesus macaque BCMA/TNFRSF17 protein; not shown: His tag
Procedure, shortened: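 Plates coated overnight at 4° C with 0.5 μg/mL His-tagged BCMA antigen (human or cynomolgus) in PBS pH 7.4, then blocked with 3% BSA. Humanized antibodies in 3-fold serial dilutions (11 points) were bound 1 h at room temperature. Detection used HRP anti-His antibody and TMB, read as OD450.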

[2] = biological target: T2, recombinant cynomolgus monkey BCMA-mFc (cynomolgus monkey; mouse); assay: indirect ELISA, coated antigen
T2 construct: also called cynoBCMA-mFc
Description: Procedures: Human, mouse and monkey BCMA antigens were prepared into 0.5 μg/mL coating solutions with PBS buffer. The coating solutions were added to a microplate at 100 μL/well and incubated at 4° C. overnight. The residual coating solution was discarded before 3% BSA was added at 300 μL/well, and the plate was blocked for 3 h at room temperature. The microplate was washed once with PB ST (PBS containing 0.1% of TWEEN 20) at 300 μL/well. The human-mouse chimeric monoclonal antibodies were serially 3-fold diluted from 10 μg/mL to the 9th concentration. The dilutions were added to the microplate at 100 μL/well. After a 1-h incubation at room temperature, the microplate was washed thrice with PB ST at 300 μL/well. The mouse anti-human IgG Fc antibody [HRP] mAb was 25,000-fold diluted with 1% BSA-PBST and added at 100 μL/well. After another 1-h incubation at room temperature, the microplate was washed thrice with PBST at 300 μL/well and dried. The TMB chromogenic solution was added at 100 μL/well. After a 5-min reaction at room temperature, 2 M H₂SO₄ was added at 100 μL/well to terminate the reaction. The microplate was placed on a microplate reader (Molecular Devices, SPECTRA Max plus 384) and the absorbance OD450 value was read at 450 nm wavelength.

[3] = biological target: T3, cynomolgus monkey BCMA on HEK293 cynoBCMA cells (cynomolgus monkey, UniProt A0A2K5UD97 1-183); assay: flow cytometry on HEK293 cynoBCMA cells
T3 construct: whole, on cells
Description: Procedures: The cells were resuspended in PBS, and the cell density was adjusted to 2×10^5 cells/well. Human-mouse chimeric monoclonal antibodies were added to a 96-well plate at 50 μL/well and serially 3-fold diluted from 3000 nM to the 9th concentration. The plate was incubated for 1 h at 4° C. 150 μL of precooled PBS containing 1% of FBS was added into the 96-well plate after the co-incubation with the primary antibody was finished. The mixtures were centrifuged at 300×g for 5 min and the supernatants were discarded. The above procedures were repeated once. The fluorescent secondary antibody PE anti-human IgG Fc (Biolegend, 409304) was added at 80 μL/well. The plate was incubated at 4° C. for 30 min. 150 μL of precooled PBS containing 1% of FBS was added into the 96-well plate after the co-incubation with the secondary antibody was finished. The 96-well plate was centrifuged at 300×g for 5 min and the supernatants were discarded. The above procedures were repeated once. The cells were resuspended in 100 μL of PBS containing 1% of FBS and detected on a flow cytometry (BD Accuri™ C6).

T2 sequence (chain, as listed by the source limits assumed): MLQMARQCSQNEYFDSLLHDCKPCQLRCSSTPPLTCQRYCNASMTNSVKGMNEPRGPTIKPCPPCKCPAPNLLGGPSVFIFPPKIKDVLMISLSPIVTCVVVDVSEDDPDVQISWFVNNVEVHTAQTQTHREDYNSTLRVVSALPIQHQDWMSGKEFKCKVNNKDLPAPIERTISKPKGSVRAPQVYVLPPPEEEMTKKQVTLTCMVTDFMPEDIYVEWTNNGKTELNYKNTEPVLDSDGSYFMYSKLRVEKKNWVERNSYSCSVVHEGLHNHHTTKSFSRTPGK
T3 sequence (A0A2K5UD97 entry or part of it): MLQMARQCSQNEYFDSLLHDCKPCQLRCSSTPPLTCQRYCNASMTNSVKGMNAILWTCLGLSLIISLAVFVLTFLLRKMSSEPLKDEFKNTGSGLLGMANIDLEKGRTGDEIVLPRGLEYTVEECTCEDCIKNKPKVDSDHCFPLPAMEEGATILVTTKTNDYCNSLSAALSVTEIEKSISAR
T1 sequence (A0A2K5UD97 entry or part of it): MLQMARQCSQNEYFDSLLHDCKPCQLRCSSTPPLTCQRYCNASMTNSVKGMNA

B1: human-mouse chimeric antibody c-mAb3 (antibody, human IgG1, V domains shown)
VH: EVQLQQSGPELVKPGASVKILCKASGYTITDYNMDWVKRSHGKSLEWIGNINPHNGGSIYNQKFKGKATLTVDKSSSTAFMELRSLTSEDTAVYYCARGDATLVLDYWGQGTSLTVSS
VL: DIVLTQSPASLAVSLGQRATISCRASKSVSTSGLSYMHWYQQKPGQPPKVLIYLASNLESGVPARFSGSGSGTDFTLNIHPVEEEDAATYYCQHSRELPPTFGAGTKLELK
notes: not shown: human IgG1 heavy chain constant region, GenBank No. AK303185.1; human kappa light chain constant region, GenBank No. MG815648.1
EC50 [1]: 0.0248 nM | EC50 [2]: 0.723 nM | EC50 [3]: 2.66 nM
